Results as given in US20050232926A1, “Antibodies specific for cancer associated antigen SM5-1 and uses thereof” (Oncomax Acquisition Corp., priority 2003, published 2005).

B1: humanized anti-SM5-1 antibody (ReSM5-1) (antibody, V domains shown)
VH: QVQLVQSGGGVVQPGRSLRLSCKASGYTFTSYVMHWVRQAPGKGLEWIGYIVPYNDGTKYNEKFKGRFTISSDKSKSTAFLQMDSLRPEDTAVYYCARGSRYDWYLDYWGQGTPVTVSS
VL: NIMMTQSPSSLSASVGDRVTITCKSSQSVLYSSNQKNYLAWYQQTPGKAPKLLIYWASTRESGVPSRFSGSGSGTDYTFTISSLQPEDIATYYCHQYFSSYTFGQGTKLQITR
B2: chSM5-1: mouse-human chimeric antibody with mSM5-1 variable regions (SEQ ID NO:3, 4) and human constant regions (antibody, V domains shown)
VH: EVQLQQSGPELVKPGASVKMSCKASGYTFTSYVMHWVKQKPGQGLDWIGYIVPYNDGTKYNEKFKGKATLTSDKSSSTAYMELSRLTSEDSAVYYCVYGSRYDWYLDVWGAGTTVTVSS
VL: NIMMTQSPSSLAVSAGEKVTMSCKSSQSVLYSSNQKNYLAWYQQKPGQSPKLLIYWASTRESGVPDRFTGSGSGTDFTLTISSVQAEDLAVYYCHQYFSSYTFGGGTKLEIKR
modifications: human constant regions; Mus Musculus

Tests used:
[1] = test system: QYC cells; experiment: In vitro proliferation of QYC cells with chimeric and humanized antibody (PMS:MTS, seven days); type: cell-based, human; conditions: serial antibody dilutions, FIG. 6
Experimental: The cell lines used in viability examination was QYC cells which were obtained from Shanghai International Joint Cancer Institute. The QYC cells was cultured in 25 cm^2 flask with RPMI-1640/DMEM (V:V=1:1, GIBCO) containing 10% FBS (GIBCO).
The above cells were digested with 0.05% trypsin and in 0.02% EDTA, and cell number was counted and adjusted to 6×10^4/ml in RPMI-1640/DMEM culture medium containing 10% FCS.
The assay was performed in 96-well plate. The anti-human SM5-1 humanized and chimeric antibody described above were diluted with RPMI-1640/DMEM containing 10% FCS. The antibody to be tested (20 mg/ml) was diluted to […] in serial dilution, with each dilution no more than 10-fold. The antibody were further diluted 1:2 serially with RPMI-1640/DMEM containing 10% FCS for fourteen serial concentrations in 96-well plate, leaving 100 μl/well. Cells (100 μl) were added into each well containing 200 μl various concentration of antibody or 200 μl of RPMI-1640/DMEM containing 10% FCS as control. In order to prevent edge effect of the plate, wells that were at the edge of the plate were not used for the assay but added 200 μl PBS. The plate was incubated at 37° C. with 7% CO2 for seven days.
Color developing reagent PMS:MTS (1:20) (20 μl) was added into each well of the 96-well plate. The plate without the lid was then incubated for 3 h.
The 96-well plate was read at OD490 nm. […]

[2] = test system: human hepatocellular carcinoma cell line QYC; experiment: Complement-dependent cytotoxicity (CDC), LDH release; type: cell-based; conditions: 5% normal human sera, 3-4 h, FIG. 8
Description: Antigen recognized by anti-SM5-1 is highly expressed on the surface of human hepatocellular carcinoma cell line QYC. With human complement in the culture fluid, the target cells bound with chimeric antibodies will be lysed by so-called complement dependent cell mediated cytotoxicity (CDC). When there is an over dose of complement (provided by fresh normal human sera), in a certain range, the degree of lysis is related to antibody concentration. Degree of lysis can be determined by detecting lactate dehydrogenase (LDH) released by the lysed cells.
Cell line for bioactivity determination is QYC, which is without any pathogen. […]
QYC cells in the logarithmic growth stage were taken and counted. […]
50 ul supernatant was transferred from each well to corresponding wells in a second 96-well plate, and 50 ul well-mixed LDH test kit reagent was added into the well of the second plate. […] OD was measured with 490 nm as detecting light wave length, and 630 nm as reference wave length.
The results were analyzed with specific analysis software Select2.2 to make auto analysis and calculate standard curve line: horizontal axis stands for the concentration of the standard product and samples, vertical axis stands for optical adsorption, recovery equation as 4-parameter equation, resulting in a “s” curve line. Half effective dosage (ED50) of the standard product and samples were calculated. […]

[3] = test system: human hepatocellular carcinoma cell line QYC; experiment: Therapeutic effect in QYC-bearing nude mice; type: in vivo; conditions: 4 mg/kg/week tail vein, after 6 weeks, FIG. 9
Experimental: Chimeric and humanized anti-SM5-1 monoclonal antibodies, and humanized and chimeric anti-CD3 antibodies were tested for their therapeutic effects in QYC bearing nude mice.
Forty female nude mice were inoculated s.c with QYC. After seven weeks, tumor masses reached 0.5 cm in diameter. These mice were randomly divided into 5 groups: 8 mice for PBS group; 8 mice for non-related antibody, chimeric anti-human CD3 mAb, 4 mg/kg; 8 mice for humanized anti-human CD3 mAb, 4 mg/kg; 8 mice for anti-human SM5-1 chimeric mAb, 4 mg/kg; 8 mice for anti-human SM5-1 humanized mAb, 4 mg/kg.
Four mAbs were diluted into final concentration 0.4 mg/ml with PBS. Mice were tail vein injected at 4 mg/kg/week through tail vein, with the control injected equal volume of PBS. According to body weight of nude mice, injection volume was about 250 ul for each nude mouse.
After 6 weeks, size of the tumor mass was measured in each mouse and statistical analyzed. […] These antibodies may function via ADCC and/or CDC.

Molecule | in vitro proliferation of QYC cells [1] | anti-neoplasm effect via CDC [2] | size of the tumor mass [3]
B1 | significantly inhibited in vitro proliferation of QYC cells | induced the apoptosis and inhibited the growth of tumor cells through the CDC pathway | effective in controlling the size of the tumor mass
B2 | significantly inhibited in vitro proliferation of QYC cells | induced the apoptosis and inhibited the growth of tumor cells through the CDC pathway | effective in controlling the size of the tumor mass
